Source: paper doi:10.1101/528240 (bioRxiv, 2019)

Tests used:
[1] = target: GII.4 CHDC-1974 norovirus major capsid protein VP1, assembled as virus-like particles (VLPs) (human norovirus GII.4 (CHDC-1974)); assay: cryo-EM structure
cryo-EM structure = target: the molecule itself; assay: cryo-EM structure

Row | Molecule | stoichiometry N [1] | stoichiometry N (cryo-EM structure)
1 | GII.4 CHDC-1974 norovirus major capsid protein VP1, assembled as virus-like particles (VLPs) (natural protein) | 240 | –
2 | GII.4 NSW-2012 norovirus major capsid protein VP1, assembled as virus-like particles (VLPs) (natural protein, human norovirus GII.4 (NSW-2012), UniProt K4LM89 1-540, looked up) MKMASSDANPSDGSAANLVPEVNNEVMALEPVVGAAIAAPVAGQQNVIDPWIRNNFVQAPGGEFTVSPRNAPGEILWSAPLGPDLNPYLSHLARMYNGYAGGFEVQVILAGNAFTAGKVIFAAVPPNFPTEGLSPSQVTMFPHIVVDVRQLEPVLIPLPDVRNNFYHYNQSNDPTIKLIAMLYTPLRANNAGDDVFTVSCRVLTRPSPDFDFIFLVPPTVESRTKPFSVPVLTVEEMTNSRFPIPLEKLFTGPSSAFVVQPQNGRCTTDGVLLGTTQLSPVNICTFRGDVTHITGSRNYTMNLASQNWNDYDPTEEIPAPLGTPDFVGKIQGVLTQTTRTDGSTRGHKATVYTGSADFAPKLGRVQFETDTDRDFEANQNTKFTPVGVIQDGGTTHRNEPQQWVLPSYSGRNTHNVHLAPAVAPTFPGEQLLFFRSTMPGCSGYPNMDLDCLLPQEWVQYFYQEAAPAQSDVALLRFVNPDTGRVLFECKLHKSGYVTVAHTGQHDLVIPPNGYFRFDSWVNQFYTLAPMGNGTGRRRAV | – | 240
